In PMC11464180 (Immunity, 2024):

B1: 013–10 3F02 IgG K56N mutant (antibody, V domains shown)
VH: QVQLVESGGGVAQPGRSLRLSCAASGFTFSTYGMHWVRQAPGKGLEWVAVISYDGSNRYYAEILKDRFTISRDNSKNTVYLQMNSLRTEDTAVYFCAKEGRPLIVSGTHFFQFYYGMDVWGQGTTVTVSS
VL: DIQMTQSPSSLSASVGDRVTISCRASQSIGTYLNWYQQKPGKAPNLLIYGTSTLKSGVPSRFSGSGSGTDFTLTIGSLQPEDFATYFCQQSFSPPLTFGRGTRLEIK
B2: 310–18A5 (antibody, V domains shown)
VH: QVQLMQSGTEVKKPGSSVRVSCKASGSTFNSDAISWVRQAPGQGLEWMGGILGMFRTVNYAQRFQGRVTITADELMSTAYMELSGLRFEDTAVYYCARGDGYKPNFLRYWGQGTLITVSS
VL: TLSLSPGERATLSCRASQSVSSTSLAWYQQKFGQAPRLLIYGASNRATGIPDRFSGSGSGTDFTLTISRLEPEDFAVYYCQQYGNSLTFGGGTKVEIK

Legend:
H1 mini-HA (#4900) [1] = biological target: T1, H1 mini-HA (#4900) (Designed from influenza A virus …, stabilised); assay: ELISA
[2] = biological target: H1N1 A/Solomon Island/3/2006 HA (Influenza A virus A/Solomon …, UniProt A7Y8I1, strain); assay: BLI
H1 mini-HA (#4900) [3] = biological target: T1, H1 mini-HA (#4900); assay: BLI

| Binder | fold weakening of binding affinity against WT (H1 mini-HA (#4900) [1]) | Kd [2] | Kd (H1 mini-HA (#4900) [3]) |
| --- | --- | --- | --- |
| B1 | 10 fold |  |  |
| B2 |  | 0.2 nM | 1 nM |
